Biological target: recombinant WU2 (r)PspA possessing only αHD and PRD (Streptococcus pneumoniae serotype 3 strain WU2)
Test: SPR

Q: With “recombinant lactoferrin (LF) (from UniProt P02788 20-710) (natural protein)” as the substance, how does the Kd read?
A: 3.89 nM
